Legend:
[1] = biological target: D3H44 light chain Q124E_Q160E_T180E, N-terminal HA or FLAG tag; experiment: LCCA, L1:L2 DNA 1:9, SPR of light chain tags; competing light chain m10
[2] = biological target: D3H44 light chain T178R, N-terminal HA or FLAG tag; experiment: LCCA, L1:L2 DNA 1:9, SPR of light chain tags; competing light chain m11
[3] = biological target: D3H44 light chain Q124E_Q160E_T180E, N-terminal HA or FLAG tag; experiment: LCCA, L1:L2 DNA 1:3, SPR of light chain tags; competing light chain m10
[4] = biological target: D3H44 light chain T178R, N-terminal HA or FLAG tag; experiment: LCCA, L1:L2 DNA 1:3, SPR of light chain tags; competing light chain m11
[5] = biological target: D3H44 light chain T178R with N-terminal HA or FLAG tag; experiment: LCCA (SPR tag readout), L1:L2 DNA 1:9, normalized to 1:1; competing light chain m18
[6] = biological target: D3H44 light chain Q124K_T178R with N-terminal HA or FLAG tag; experiment: as above
[7] = biological target: D3H44 light chain Q124R_T178R with N-terminal HA or FLAG tag; experiment: LCCA (SPR tag readout), L1:L2 DNA 1:9, normalized to 1:1; competing light chain m11
[8] = biological target: D3H44 light chain Q124E_T180E with N-terminal HA or FLAG tag; experiment: LCCA (SPR tag readout), L1:L2 DNA 1:3, normalized to 1:1; competing light chain m9
[9] = biological target: D3H44 light chain Q124E_V133D with N-terminal HA or FLAG tag; experiment: as above
[10] = biological target: D3H44 light chain Q124E_T178E with N-terminal HA or FLAG tag; experiment: as above
[11] = biological target: D3H44 light chain Q124E_T178E_T180E with N-terminal HA or FLAG tag; experiment: as above
[12] = biological target: D3H44 light chain Q124R_T178R with N-terminal HA or FLAG tag; experiment: LCCA (SPR tag readout), L1:L2 DNA 1:9, normalized to 1:1; competing light chain m16
[13] = biological target: D3H44 light chain Q124R_T178R with N-terminal HA or FLAG tag; experiment: LCCA (SPR tag readout), L1:L2 DNA 1:3, normalized to 1:1; competing light chain m16
[14] = biological target: D3H44 light chain Q124E_Q160E_T180E with N-terminal HA or FLAG tag; experiment: LCCA (SPR tag readout), L1:L2 DNA 1:9, normalized to 1:1; competing light chain m12
[15] = biological target: D3H44 light chain Q124E_T180E with N-terminal HA or FLAG tag; experiment: LCCA (SPR tag readout), L1:L2 DNA 1:9, normalized to 1:1; competing light chain m9
[16] = biological target: D3H44 light chain Q124E_V133D with N-terminal HA or FLAG tag; experiment: as above
[17] = biological target: D3H44 light chain Q124E_T178E with N-terminal HA or FLAG tag; experiment: as above
[18] = biological target: D3H44 light chain Q124E_T178E_T180E with N-terminal HA or FLAG tag; experiment: as above
[19] = biological target: D3H44 light chain Q124E_Q160E_T180E with N-terminal HA or FLAG tag; experiment: LCCA (SPR tag readout), L1:L2 DNA 1:3, normalized to 1:1; competing light chain m19
[20] = biological target: D3H44 light chain T178R with N-terminal HA or FLAG tag; experiment: LCCA (SPR tag readout), L1:L2 DNA 1:3, normalized to 1:1; competing light chain m18
[21] = biological target: D3H44 light chain Q124K_T178R with N-terminal HA or FLAG tag; experiment: as above
[22] = biological target: D3H44 light chain Q124R_T178R with N-terminal HA or FLAG tag; experiment: LCCA (SPR tag readout), L1:L2 DNA 1:9, normalized to 1:1; competing light chain m13
[23] = biological target: D3H44 light chain Q124R_T178R with N-terminal HA or FLAG tag; experiment: LCCA (SPR tag readout), L1:L2 DNA 1:9, normalized to 1:1; competing light chain m10
[24] = biological target: D3H44 light chain Q124R_T178R with N-terminal HA or FLAG tag; experiment: LCCA (SPR tag readout), L1:L2 DNA 1:3, normalized to 1:1; competing light chain m11
[25] = biological target: D3H44 light chain Q124R_T178R with N-terminal HA or FLAG tag; experiment: LCCA (SPR tag readout), L1:L2 DNA 1:3, normalized to 1:1; competing light chain m13
[26] = biological target: D3H44 light chain Q124R_Q160K_T178R with N-terminal HA or FLAG tag; experiment: as above
[27] = biological target: D3H44 light chain Q124K_T178R with N-terminal HA or FLAG tag; experiment: as above
[28] = biological target: D3H44 light chain Q124R_T178K with N-terminal HA or FLAG tag; experiment: as above
[29] = biological target: D3H44 light chain Q124E_Q160E_T180E with N-terminal HA or FLAG tag; experiment: LCCA (SPR tag readout), L1:L2 DNA 1:9, normalized to 1:1; competing light chain m19
[30] = biological target: D3H44 light chain Q124R_T178R with N-terminal HA or FLAG tag; experiment: LCCA (SPR tag readout), L1:L2 DNA 1:3, normalized to 1:1; competing light chain m10
[31] = biological target: D3H44 light chain Q124E_T180E with N-terminal HA or FLAG tag; experiment: LCCA (SPR tag readout), L1:L2 DNA 1:3, normalized to 1:1; competing light chain m12
[32] = biological target: D3H44 light chain Q124E_Q160E_T180E with N-terminal HA or FLAG tag; experiment: as above
[33] = biological target: D3H44 light chain Q124E_T180E with N-terminal HA or FLAG tag; experiment: LCCA (SPR tag readout), L1:L2 DNA 1:3, normalized to 1:1; competing light chain m15
[34] = biological target: D3H44 light chain Q124E_T180E with N-terminal HA or FLAG tag; experiment: LCCA (SPR tag readout), L1:L2 DNA 1:3, normalized to 1:1; competing light chain m14
[35] = biological target: D3H44 light chain Q124R_T178R with N-terminal HA or FLAG tag; experiment: LCCA (SPR tag readout), L1:L2 DNA 1:9, normalized to 1:1; competing light chain m18
[36] = biological target: D3H44 light chain Q124R_T178K with N-terminal HA or FLAG tag; experiment: as above
[37] = biological target: D3H44 light chain Q124E_Q160E_T180E with N-terminal HA or FLAG tag; experiment: LCCA (SPR tag readout), L1:L2 DNA 1:3, normalized to 1:1; competing light chain m9
[38] = biological target: D3H44 light chain Q124E_Q160E_T180E with N-terminal HA or FLAG tag; experiment: LCCA (SPR tag readout), L1:L2 DNA 1:9, normalized to 1:1; competing light chain m9
[39] = biological target: D3H44 light chain Q124E_T180E with N-terminal HA or FLAG tag; experiment: LCCA (SPR tag readout), L1:L2 DNA 1:3, normalized to 1:1; competing light chain m19
[40] = biological target: D3H44 light chain Q124R_T178R with N-terminal HA or FLAG tag; experiment: LCCA (SPR tag readout), L1:L2 DNA 1:3, normalized to 1:1; competing light chain m18
[41] = biological target: D3H44 light chain Q124R_T178K with N-terminal HA or FLAG tag; experiment: as above
[42] = biological target: D3H44 light chain T178R with N-terminal HA or FLAG tag; experiment: LCCA (SPR tag readout), L1:L2 DNA 1:3, normalized to 1:1; competing light chain m13
[43] = biological target: D3H44 light chain Q124E_Q160E_T180E with N-terminal HA or FLAG tag; experiment: LCCA (SPR tag readout), L1:L2 DNA 1:9, normalized to 1:1; competing light chain m15
[44] = biological target: D3H44 light chain Q124E_Q160E_T180E with N-terminal HA or FLAG tag; experiment: LCCA (SPR tag readout), L1:L2 DNA 1:3, normalized to 1:1; competing light chain m15

In the case of “D3H44 Fab heavy chain L143D_K145T_Q179E, C-terminal ABD2-His6 tag”, the H1L1:H1L2 normalized median ratio [1] is reported as 11 share of 100, the H1L1:H1L2 normalized median ratio [2] is reported as 89 share of 100 and the H1L1:H1L2 normalized median scalar value ln(r1/f1) [2] is reported as 2.09. For the same substance, the H1L1:H1L2 normalized median ratio [3] was 11 share of 100, the H1L1:H1L2 normalized median ratio [4] was 89 share of 100 and the H1L1:H1L2 normalized median scalar value ln(r1/f1) [4] was 2.1.

For “D3H44 Fab heavy chain L143E_K145T_Q179E with C-terminal ABD2-His6 tag”, the H1L1:H1L2 normalized median ratio [5] was 75%, the H1L1:H1L2 normalized median scalar value ln(r1/f1) [5] was 1.1 and the H1L1:H1L2 normalized median ratio [6] was 88%. It also gave an H1L1:H1L2 normalized median scalar value ln(r1/f1) [6] of 2.02, an H1L1:H1L2 normalized median ratio [7] of 85% and an H1L1:H1L2 normalized median scalar value ln(r1/f1) [7] of 1.77. It also gave an H1L1:H1L2 normalized median ratio [8] of 15%, an H1L1:H1L2 normalized median ratio [9] of 8% and an H1L1:H1L2 normalized median ratio [10] of 14%. The H1L1:H1L2 normalized median ratio [11] was 8%, the H1L1:H1L2 normalized median ratio [12] was 88% and the H1L1:H1L2 normalized median scalar value ln(r1/f1) [12] was 1.96. The H1L1:H1L2 normalized median ratio [13] was 92%, the H1L1:H1L2 normalized median scalar value ln(r1/f1) [13] was 2.41 and the H1L1:H1L2 normalized median ratio [14] was 12%. It also gave an H1L1:H1L2 normalized median ratio [15] of 17%, an H1L1:H1L2 normalized median ratio [16] of 12% and an H1L1:H1L2 normalized median ratio [17] of 15%. For the same substance, the H1L1:H1L2 normalized median ratio [18] was 8%, the H1L1:H1L2 normalized median ratio [19] was 11% and the H1L1:H1L2 normalized median ratio [20] was 89%. It also gave an H1L1:H1L2 normalized median scalar value ln(r1/f1) [20] of 2.14, an H1L1:H1L2 normalized median ratio [21] of 88% and an H1L1:H1L2 normalized median scalar value ln(r1/f1) [21] of 2. The H1L1:H1L2 normalized median ratio [22] was 83%, the H1L1:H1L2 normalized median scalar value ln(r1/f1) [22] was 1.59 and the H1L1:H1L2 normalized median ratio [23] was 92%. For the same substance, the H1L1:H1L2 normalized median scalar value ln(r1/f1) [23] was 2.45, the H1L1:H1L2 normalized median ratio [24] was 86% and the H1L1:H1L2 normalized median scalar value ln(r1/f1) [24] was 1.83. It also gave an H1L1:H1L2 normalized median ratio [25] of 85%, an H1L1:H1L2 normalized median scalar value ln(r1/f1) [25] of 1.75 and an H1L1:H1L2 normalized median ratio [26] of 73%. For the same substance, the H1L1:H1L2 normalized median scalar value ln(r1/f1) [26] was 1, the H1L1:H1L2 normalized median ratio [27] was 70% and the H1L1:H1L2 normalized median scalar value ln(r1/f1) [27] was 0.84. The H1L1:H1L2 normalized median ratio [28] was 84%, the H1L1:H1L2 normalized median scalar value ln(r1/f1) [28] was 1.69 and the H1L1:H1L2 normalized median ratio [29] was 25%. It also gave an H1L1:H1L2 normalized median ratio [30] of 92%, an H1L1:H1L2 normalized median scalar value ln(r1/f1) [30] of 2.46 and an H1L1:H1L2 normalized median ratio [31] of 30%. For the same substance, the H1L1:H1L2 normalized median ratio [32] was 12%, the H1L1:H1L2 normalized median ratio [33] was 16% and the H1L1:H1L2 normalized median ratio [34] was 27%.

“D3H44 Fab heavy chain S186K with C-terminal ABD2-His6 tag” gave an H2L2:H2L1 normalized median ratio [35] of 6%, an H2L2:H2L1 normalized median ratio [5] of 13% and an H2L2:H2L1 normalized median ratio [36] of 11%. The H2L2:H2L1 normalized median ratio [7] was 4%, the H2L2:H2L1 normalized median ratio [8] was 94% and the H2L2:H2L1 normalized median ratio [10] was 96%. For the same substance, the H2L2:H2L1 normalized median ratio [37] was 94%, the H2L2:H2L1 normalized median ratio [15] was 89% and the H2L2:H2L1 normalized median ratio [17] was 96%. It also gave an H2L2:H2L1 normalized median ratio [38] of 94%, an H2L2:H2L1 normalized median ratio [39] of 96% and an H2L2:H2L1 normalized median ratio [19] of 91%. For the same substance, the H2L2:H2L1 normalized median ratio [40] was 6%, the H2L2:H2L1 normalized median ratio [20] was 9% and the H2L2:H2L1 normalized median ratio [41] was 8%. For the same substance, the H2L2:H2L1 normalized median ratio [22] was 11%, the H2L2:H2L1 normalized median ratio [24] was 4% and the H2L2:H2L1 normalized median ratio [25] was 6%. For the same substance, the H2L2:H2L1 normalized median ratio [26] was 3%, the H2L2:H2L1 normalized median ratio [42] was 4% and the H2L2:H2L1 normalized median ratio [27] was 2%. For the same substance, the H2L2:H2L1 normalized median ratio [43] was 89%, the H2L2:H2L1 normalized median ratio [29] was 87% and the H2L2:H2L1 normalized median ratio [31] was 98%. It also gave an H2L2:H2L1 normalized median ratio [44] of 92% and an H2L2:H2L1 normalized median ratio [34] of 97%.

Reference: patent publication US11306156
